Reference: the DeepSol protein solubility set

Assay: soluble on expression in E. coli; label from the status in PepcDB or PDB records

Soluble on expression in E. coli, not soluble:
MGSDKIHHHHHHMIMATLKDIAKLAKVSQATVSRVLNKDETLSVSQKTKHRILMVADELGYQKHLKTTNSPQVRQKIAIVQWYSQQEELNDLYYYSIRIGIEKRAQELDYDIVRYFDNDISKVSADIVGLIAIGKFSTYQIAELEKLSDKLIFVDSDTLNAGYPCVMTDFDNAVVKVLDYFLDHGLTKIGMIAGEEKTTDGRELLIDQRFRTFRNYAYEQDIYNPNYIFIGDFSAQTGYHLMKKAIKELKENLPQAFFIANDSLAIGALRALQEANIPVPNRVSLISFNDTALTKQVFPALSSITVFTKEMGRTAVDILNRQILNPDIIPSMTRLTTQLTLRESSI, MGSDKIHHHHHHMINLKELKILHTSDWHLGVTSWTSSRPVDRREELKKALDKVVEEAEKREVDLILLTGDLLHSRNNPSVVALHDLLDYLKRMMRTAPVVVLPGNHDWKGLKLFGNFVTSISSDITFVMSFEPVDVEAKRGQKVRILPFPYPDESEALRKNEGDFRFFLESRLNKLYEEALKKEDFAIFMGHFTVEGLAGYAGIEQGREIIINRALIPSVVDYAALGHIHSFREIQKQPLTIYPGSLIRIDFGEEADEKGAVFVELKRGEPPRYERIDASPLPLKTLYYKKIDTSALKSIRDFCRNFPGYVRVVYEEDSGILPDLMGEIDNLVKIERKSRREIEEVLRESPEEFKEELDKLDYFELFKEYLKKREENHEKLLKILDELLDEVKKSEA, MGSDKIHHHHHHMINQVYRLVSERQFEVANVDESLTGDVVVVRPTHLSICAADQRYYTGSRGKEMLSKKLPMALIHEGVGEVVYDATKEFKPGAKVVMIPNTPFENDPVIAENYLRSSKFRSSGYDGLMQDYVFMRRDRVVALPDDINMKVAAFSELISVAVHAILRFEGKSNANRESFGVWGDGNLGFITSLLLKNWYPDSKVYIFGKTPYKLDFFSFVDGAYAIDDVPADLVIDQAFECAGGMGSQYAVSQIIDVIKPEGTISLLGVSEYPIEFNSRMVLEKGLTVYGSSRSGRVDFEKTVEFLSTNKRGVEYLQNLVGEVHTVHSIQDVIEAFEADLRSPWGKSVMEWKI, MGSDKIHHHHHHMINRELYMEQITPFIDKPFVKVITGIRRCGKSVVLRLIREELLRRGVSEDYIIYMNFESFEWIDMKEAKALYAHIREATKASGKYYILLDEIQEVTDWEKAVNAFLVDLDVDIYVTGSNSRLLSSEFSTYLAGRYVAFHIMTLSFREYLLFHDLPLTISVSDRKTEFLKYLRMGGFPAIHTANYDYNAIYKIVYDIYSSVILRDTVQRHSIRNVEMLERVVKFVFDNIGNKLNAKNIADYFKSQQRKVDINTIYNYLNALDSAFVIQRIPRYDIKGKEILQTNEKYFVSDLSLIYSVMGYRDRLIGGMLENLVCMELKRRGYEVYVGKQDEKEVDFVAIRREEKIYVQVTYQLGLQATIDREFAPLLAIDDHYPKYVVSMDDLWQDNIEGVKHRHIADFLLDEW, MGSDKIHHHHHHMIPDKSVEILLGELSRDIAQRTPGTGDFPTAVEGLELFRRNEPAPPVSCLVPPSIVLVADGAKIMWVGGEPYEYNAEKFLITSLDLPASSEILQASTSQPCVGVAYKLDQRVLMELIAQGSLPPVKKRDAGTSVGIGTITDALLEPFCRLLSLLDEPEAIPVLGPLIQREIHYRLLMSDQSDHLRQIAAVDGHGYRIGKAIDWLKTNIASPLRVEELASRVQMSTPSFHHHFRQLAGMSPLRYQKWLRLNEARRLMLNEHYDVTTAAYAVGYESLSHFSREYTRMFGESPKRDITELRKSAGKL, MGSDKIHHHHHHMIPIVDSRIGAYLDGLLPEADPVVAAMEQIARERNIPIVDRQTGRLLYLLARIKQPQLVVVPGDGLGCASWWFARAISISSRVVMIDPDRDNVEHARRMLHDNGLIDRVELQVGDPLGIAAGQRDIDILFMDCDVFNGADVLERMNRCLAKNALLIAVNALRRGSVAESHEDPETAALREFNHHLSRRRDFFTTIVPVGNGVLLGYRLS, MGSDKIHHHHHHMIPRLELRSITKCYPGTVANDAVSLSILPGEIHAVLGENGAGKSTLMKIIYGAAQADSGEIYCDGRRIEAHNPAISRSLGIEMVYQHFALFESVSVVENIALAVKGTFDLDRLAAEIKTLSARYGMPIDPHRRVHDLSVGERQRVEIVRCLLQSPKLLILDEPTSVLTPQAVVKLFETLRQLASEGCSIVYISHKLDEVQELCDTATVLRNGKVTGTAKPKESTSLELARMMVGSQLPQMHVSPSAPSAKPLLEVRGLSAPARDKYGTELTDVSLEVHGGEIVGLAGVSGNGQAELIALLSGERTHPRAETILIGGRPSGHLNAGERRKLGMAFVPEERLGRGAVPPHALWENAVLTAHRAGLVRNALVDRRRAGEFARHIIERFKVKANGPQASAQSLSGGNLQKFIVGRELTLEPKILLVSQPTWGVDVGAAAFIRQTLVDLSRGGAAVLVVSEELDELFEICDRLLVISNGRVSPPLIRKQTNREEIGLLMTRVGHGETRRSEVALED, MGSDKIHHHHHHMIPRNEYLENLISFRDKQLIKVVTGIRRCGKSTLFELYQDYLLQNDVKPEQIIAFNLEDGDWAEIENSKDLYELVKARLLPDRMNYVFLDEVQRVTDFQKAVDSLFIKKNCDVYITGSNAYLLSGELATLLSGRYVEIKMLPLSFKEYVSAFPPDSSIDRLYQDYIHNSSFPYTLELKRQKDIRQYLDGLYDSIVLKDIVARRRFPDLAMLQSVVRFLFDNIGNLCSTKKIADTMTSAGRKITVHTVESYLTALTDSFIFYRVGRYDVKGKQYLKTGDKYYAADMGLRYNALGTKKADAGHILENIVYLELLRRGYEVHIGKVGAAEIDFIAIGPEGEEYYQVAYTVMDADGKTLQRELAPLDAISDHNPKFLLTMDHGPLVSHNGIKQLNALDWLLK, MGSDKIHHHHHHMIPTIRLHSQQLINPVFNNPKDLVSWMGGIQAQDYTMSKWAIGIRLKAGNLQTVNEALAKGDILRIHVMRPTWHYVAAEDIRWMLKLSSRRIITANDSFAKSRGQDISVDIYNKANRLLEKALAGHNHLTKQEIDNIFKEGGLETNERLSNRFLIHAEAEGLICSGADKNNKITFALLDERVPPIQELHKEEALAILARKYFRSHSPASLKDFVWWSGLSVTEARQGIAAIEQELLTDRFLAQKLYVHQSYKEEKTTDILHILPSYDEYLISYKDRTDVLNKEYQHKAFNSFGIFRPVILYNGQIVGNWNKVIQKQTTHIEMNWFKKNTKIKRELLSLAERKYLTFFSEL, MGSDKIHHHHHHMIQIKRGKIVGFNERVGRAFHPAQVAEPAQHAPHQRRLARTEVAFQIEGHAGRQAGRKPRAERKRGGLVGKVATRRRGIIRGMHEQDSPRDFGRLAAQIKQWGRELGFAAIGITDADLSAAEAGLHTWLDKGFHGEMDYMAAHGTKRSRPAELVPGTLRIISARLDYFPPDAVDPDTILATPDAAYVSRYALGRDYHKVLRQRLQTLAERIGAAAGEHHFRVFSDSAPVMEVELATRAGLGWRGKHTLLLNRHHGSWFFLGEIYSDLPLPVDAPEAEHCGTCHACLDACPTQAIVAPYSVDARRCISYLTIELKGSIPLELRSLIGNRIYGCDDCQLVCPWNRFAGTAAVPDFAVRNGLDSAQLVDLFAWSEADFNDRLAGSPIRRIGHERWLRNIAVALGNARPAPAIEAALGTRLDHPSAMVREHVAWALARQQER, MGSDKIHHHHHHMIRKHFKGYNFVCIPETGVTFRWGDSIAEDPYMAPWPELADISISNYCTNGCEYCYRASNEEGIFMTVADYKFILGQLTSKEYGSIFQVALGGGEPLLHPDFNEILHVTREEYGIIPNYTTCGKYFNQKNMEASKKYCGAVAVSWDPYRDNLSLEELRELGVQLKEEKIRTNIHYVISERTLIEAIKLLKGKYDEYLKDFNSVIFLTYKAAGRADKSDVIKSQKYLREFLDMVDAPLTKLKLGFDACFVPVLMKATGVDTDLVDSCECGFFSVYVSESMEVMPCSFCNNSNFTYNLKDLCFKDIWQKHFSAYRSYVNDNCKTGCAECDERSGCRGKCSFYNDIYLCNLV, MGSDKIHHHHHHMIRNKAFVVRLYPNAAQTELINRTLGSARFVYNHFLARRIAAYKESGKGLTYGQTSSELTLLKQAEETSWLSEVDKFALQNSLKNLETAYKNFFRTVKQSGKKVGFPRFRKKRTGESYRTQFTNNNIQIGEGRLKLPKLGWVKTKGQQDIQGKILNVTVRRIHEGHYEASVLCEVEIPYLPAAPKFAAGVDVGIKDFAIVTDGVRFKHEQNPKYYRSTLKRLRKAQQTLSRRKKGSARYGKAKTKLARIHKRIVNKRQDFLHKLTTSLVREYEIIGTEHLKPDNMRKNRRLALSISDAGWGEFIRQLEYKAAWYGRLVSKVSPYFPSSQLCHDCGFKNPEVKNLAVRTWTCPNCGETHDRDENAALNIRREALVAAGISDTLNAHGGYVRPASAGNGLRSENHATLVV
